Measured values published in publication PMC7948503, “Optimization of a peptide ligand for the adhesion GPCR ADGRG2 provides a potent tool to explore receptor biology” (The Journal of Biological Chemistry, 2020).
Non-standard residues stand in square brackets, D forms with d. Primed or numbered codes have the meaning given here. No end group written: not given here. Phe(4-Me) = Cc1ccc(C[C@H](N)C(=O)O)cc1; FITC′ = not defined here

How the values were obtained:
Experiment in all cases: FRET or BRET; HEK293 cells transfected with Rluc-ADGRG2-ΔGPS-β WT or mutants, stimulated by increasing concentrations of FITC-conjugated VPM-p15; saturation curves fitted with GraphPad; each experiment repeated 6 times
Conditions in all cases: one partner purified
Rluc-ADGRG2-ΔGPS-β F764A = target: T1, Rluc-ADGRG2-ΔGPS-β F764A (mouse, UniProt Q8CJ12-3 38-995, F764A)
T1 construct: ADGRG2 (GPR64), mouse, ADGRG2-ΔGPS-β: the entire ECD removed; source: HEK293, transfected, on cells; not shown: Rluc, N-terminal, kept
T1 sequence (Q8CJ12 other isoform, or with tags, fused parts or gaps F764A | F764A | F764A F764A): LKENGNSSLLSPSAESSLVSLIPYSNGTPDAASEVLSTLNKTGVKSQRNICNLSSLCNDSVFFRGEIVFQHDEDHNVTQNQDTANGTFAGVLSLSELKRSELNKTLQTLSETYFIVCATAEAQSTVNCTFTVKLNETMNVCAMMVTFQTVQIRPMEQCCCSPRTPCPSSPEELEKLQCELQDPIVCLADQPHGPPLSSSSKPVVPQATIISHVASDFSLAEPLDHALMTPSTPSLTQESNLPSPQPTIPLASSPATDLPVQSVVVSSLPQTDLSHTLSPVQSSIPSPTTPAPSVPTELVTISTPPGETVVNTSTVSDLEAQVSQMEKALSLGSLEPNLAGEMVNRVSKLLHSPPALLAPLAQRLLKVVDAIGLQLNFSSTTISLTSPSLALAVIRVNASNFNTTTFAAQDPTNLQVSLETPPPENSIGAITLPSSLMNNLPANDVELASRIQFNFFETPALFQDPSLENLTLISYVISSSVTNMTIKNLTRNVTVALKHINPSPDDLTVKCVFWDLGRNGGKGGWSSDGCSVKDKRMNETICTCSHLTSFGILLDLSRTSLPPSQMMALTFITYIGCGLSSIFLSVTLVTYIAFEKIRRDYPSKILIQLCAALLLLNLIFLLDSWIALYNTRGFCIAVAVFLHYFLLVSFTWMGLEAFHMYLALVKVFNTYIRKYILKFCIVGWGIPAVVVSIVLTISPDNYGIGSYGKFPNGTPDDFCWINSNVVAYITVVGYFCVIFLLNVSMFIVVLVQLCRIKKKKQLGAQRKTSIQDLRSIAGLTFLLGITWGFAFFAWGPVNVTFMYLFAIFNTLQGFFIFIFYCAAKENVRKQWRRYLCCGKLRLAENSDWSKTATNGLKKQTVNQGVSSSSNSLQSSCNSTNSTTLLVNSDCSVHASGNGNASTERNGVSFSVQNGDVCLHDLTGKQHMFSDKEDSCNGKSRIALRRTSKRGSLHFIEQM

Rluc-ADGRG2-ΔGPS-β I741A = target: T2, Rluc-ADGRG2-ΔGPS-β I741A (mouse, UniProt Q8CJ12-3 38-995, I741A)
T2 construct: ADGRG2 (GPR64), mouse, ADGRG2-ΔGPS-β: the entire ECD removed; also called F741A (as the methods list it); source: HEK293, transfected, on cells; not shown: Rluc, N-terminal, kept
T2 sequence (Q8CJ12 other isoform, or with tags, fused parts or gaps I741A | I741A | I741A I741A): as the sequence (Q8CJ12 other isoform, or with tags, fused parts or gaps F764A | F764A | F764A F764A) above, with I704A, A727F counted along it

Rluc-ADGRG2-ΔGPS-β Y611A = target: T3, Rluc-ADGRG2-ΔGPS-β Y611A (mouse, UniProt Q8CJ12-3 38-995, Y611A)
T3 construct: ADGRG2 (GPR64), mouse, ADGRG2-ΔGPS-β: the entire ECD removed; source: HEK293, transfected, on cells; not shown: Rluc, N-terminal, kept
T3 sequence (Q8CJ12 other isoform, or with tags, fused parts or gaps Y611A | Y611A | Y611A Y611A): as the sequence (Q8CJ12 other isoform, or with tags, fused parts or gaps F764A | F764A | F764A F764A) above, with Y574A, A727F counted along it

Rluc-ADGRG2-ΔGPS-β C614A = target: T4, Rluc-ADGRG2-ΔGPS-β C614A (mouse, UniProt Q8CJ12-3 38-995, C614A)
T4 construct: ADGRG2 (GPR64), mouse, ADGRG2-ΔGPS-β: the entire ECD removed; source: HEK293, transfected, on cells; not shown: Rluc, N-terminal, kept
T4 sequence (Q8CJ12 other isoform, or with tags, fused parts or gaps C614A | C614A | C614A C614A): as the sequence (Q8CJ12 other isoform, or with tags, fused parts or gaps F764A | F764A | F764A F764A) above, with C577A, A727F counted along it

Rluc-ADGRG2-ΔGPS-β F671A = target: T5, Rluc-ADGRG2-ΔGPS-β F671A (mouse, UniProt Q8CJ12-3 38-995, F671A)
T5 construct: ADGRG2 (GPR64), mouse, ADGRG2-ΔGPS-β: the entire ECD removed; source: HEK293, transfected, on cells; not shown: Rluc, N-terminal, kept
T5 sequence (Q8CJ12 other isoform, or with tags, fused parts or gaps F671A | F671A | F671A F671A): as the sequence (Q8CJ12 other isoform, or with tags, fused parts or gaps F764A | F764A | F764A F764A) above, with F634A, A727F counted along it

Rluc-ADGRG2-ΔGPS-β F747A = target: T6, Rluc-ADGRG2-ΔGPS-β F747A (mouse, UniProt Q8CJ12-3 38-995, F747A)
T6 construct: ADGRG2 (GPR64), mouse, ADGRG2-ΔGPS-β: the entire ECD removed; source: HEK293, transfected, on cells; not shown: Rluc, N-terminal, kept
T6 sequence (Q8CJ12 other isoform, or with tags, fused parts or gaps F747A | F747A | F747A F747A): as the sequence (Q8CJ12 other isoform, or with tags, fused parts or gaps F764A | F764A | F764A F764A) above, with F710A, A727F counted along it

Rluc-ADGRG2-ΔGPS-β S760A = target: T7, Rluc-ADGRG2-ΔGPS-β S760A (mouse, UniProt Q8CJ12-3 38-995, S760A)
T7 construct: ADGRG2 (GPR64), mouse, ADGRG2-ΔGPS-β: the entire ECD removed; source: HEK293, transfected, on cells; not shown: Rluc, N-terminal, kept
T7 sequence (Q8CJ12 other isoform, or with tags, fused parts or gaps S760A | S760A | S760A S760A): as the sequence (Q8CJ12 other isoform, or with tags, fused parts or gaps F764A | F764A | F764A F764A) above, with S723A, A727F counted along it

Rluc-ADGRG2-ΔGPS-β V774A = target: T8, Rluc-ADGRG2-ΔGPS-β V774A (mouse, UniProt Q8CJ12-3 38-995, V774A)
T8 construct: ADGRG2 (GPR64), mouse, ADGRG2-ΔGPS-β: the entire ECD removed; source: HEK293, transfected, on cells; not shown: Rluc, N-terminal, kept
T8 sequence (Q8CJ12 other isoform, or with tags, fused parts or gaps V774A | V774A | V774A V774A): as the sequence (Q8CJ12 other isoform, or with tags, fused parts or gaps F764A | F764A | F764A F764A) above, with A727F, V737A counted along it

Rluc-ADGRG2-ΔGPS-β F826A = target: T9, Rluc-ADGRG2-ΔGPS-β F826A (mouse, UniProt Q8CJ12-3 38-995, F826A)
T9 construct: ADGRG2 (GPR64), mouse, ADGRG2-ΔGPS-β: the entire ECD removed; source: HEK293, transfected, on cells; not shown: Rluc, N-terminal, kept
T9 sequence (Q8CJ12 other isoform, or with tags, fused parts or gaps F826A | F826A | F826A F826A): as the sequence (Q8CJ12 other isoform, or with tags, fused parts or gaps F764A | F764A | F764A F764A) above, with A727F, F789A counted along it

Rluc-ADGRG2-ΔGPS-β M839A = target: T10, Rluc-ADGRG2-ΔGPS-β M839A (mouse, UniProt Q8CJ12-3 38-995, M839A)
T10 construct: ADGRG2 (GPR64), mouse, ADGRG2-ΔGPS-β: the entire ECD removed; source: HEK293, transfected, on cells; not shown: Rluc, N-terminal, kept
T10 sequence (Q8CJ12 other isoform, or with tags, fused parts or gaps M839A | M839A | M839A M839A): as the sequence (Q8CJ12 other isoform, or with tags, fused parts or gaps F764A | F764A | F764A F764A) above, with A727F, M802A counted along it

Rluc-ADGRG2-ΔGPS-β F829A = target: T11, Rluc-ADGRG2-ΔGPS-β F829A (mouse, UniProt Q8CJ12-3 38-995, F829A)
T11 construct: ADGRG2 (GPR64), mouse, ADGRG2-ΔGPS-β: the entire ECD removed; source: HEK293, transfected, on cells; not shown: Rluc, N-terminal, kept
T11 sequence (Q8CJ12 other isoform, or with tags, fused parts or gaps F829A | F829A | F829A F829A): as the sequence (Q8CJ12 other isoform, or with tags, fused parts or gaps F764A | F764A | F764A F764A) above, with A727F, F792A counted along it

Rluc-ADGRG2-ΔGPS-β V836A = target: T12, Rluc-ADGRG2-ΔGPS-β V836A (mouse, UniProt Q8CJ12-3 38-995, V836A)
T12 construct: ADGRG2 (GPR64), mouse, ADGRG2-ΔGPS-β: the entire ECD removed; source: HEK293, transfected, on cells; not shown: Rluc, N-terminal, kept
T12 sequence (Q8CJ12 other isoform, or with tags, fused parts or gaps V836A | V836A | V836A V836A): as the sequence (Q8CJ12 other isoform, or with tags, fused parts or gaps F764A | F764A | F764A F764A) above, with A727F, V799A counted along it

Rluc-ADGRG2-ΔGPS-β F845A = target: T13, Rluc-ADGRG2-ΔGPS-β F845A (mouse, UniProt Q8CJ12-3 38-995, F845A)
T13 construct: ADGRG2 (GPR64), mouse, ADGRG2-ΔGPS-β: the entire ECD removed; source: HEK293, transfected, on cells; not shown: Rluc, N-terminal, kept
T13 sequence (Q8CJ12 other isoform, or with tags, fused parts or gaps F845A | F845A | F845A F845A): as the sequence (Q8CJ12 other isoform, or with tags, fused parts or gaps F764A | F764A | F764A F764A) above, with A727F, F808A counted along it

Rluc-ADGRG2-ΔGPS-β I663A = target: T14, Rluc-ADGRG2-ΔGPS-β I663A (mouse, UniProt Q8CJ12-3 38-995, I663A)
T14 construct: ADGRG2 (GPR64), mouse, ADGRG2-ΔGPS-β: the entire ECD removed; source: HEK293, transfected, on cells; not shown: Rluc, N-terminal, kept
T14 sequence (Q8CJ12 other isoform, or with tags, fused parts or gaps I663A | I663A | I663A I663A): as the sequence (Q8CJ12 other isoform, or with tags, fused parts or gaps F764A | F764A | F764A F764A) above, with I626A, A727F counted along it

Rluc-ADGRG2-ΔGPS-β N667A = target: T15, Rluc-ADGRG2-ΔGPS-β N667A (mouse, UniProt Q8CJ12-3 38-995, N667A)
T15 construct: ADGRG2 (GPR64), mouse, ADGRG2-ΔGPS-β: the entire ECD removed; source: HEK293, transfected, on cells; not shown: Rluc, N-terminal, kept
T15 sequence (Q8CJ12 other isoform, or with tags, fused parts or gaps N667A | N667A | N667A N667A): as the sequence (Q8CJ12 other isoform, or with tags, fused parts or gaps F764A | F764A | F764A F764A) above, with N630A, A727F counted along it

Rluc-ADGRG2-ΔGPS-β Y666A = target: T16, Rluc-ADGRG2-ΔGPS-β Y666A (mouse, UniProt Q8CJ12-3 38-995, Y666A)
T16 construct: ADGRG2 (GPR64), mouse, ADGRG2-ΔGPS-β: the entire ECD removed; source: HEK293, transfected, on cells; not shown: Rluc, N-terminal, kept
T16 sequence (Q8CJ12 other isoform, or with tags, fused parts or gaps Y666A | Y666A | Y666A Y666A): as the sequence (Q8CJ12 other isoform, or with tags, fused parts or gaps F764A | F764A | F764A F764A) above, with Y629A, A727F counted along it

B1: FITC-conjugated VPM-p15 (ADGRG2 Stachel peptide p15 T1V/F3Phe(4-Me)) (peptide)
chain: VS[Phe(4-Me)]GILLDLSRTSLP-{FITC′}
EC50 (Rluc-ADGRG2-ΔGPS-β F764A): 1110 nM
EC50 (Rluc-ADGRG2-ΔGPS-β I741A): 669 nM
EC50 (Rluc-ADGRG2-ΔGPS-β Y611A): 712 nM
EC50 (Rluc-ADGRG2-ΔGPS-β C614A): 1290 nM
EC50 (Rluc-ADGRG2-ΔGPS-β F671A): 880 nM
EC50 (Rluc-ADGRG2-ΔGPS-β F747A): 759 nM
EC50 (Rluc-ADGRG2-ΔGPS-β S760A): 1350 nM
EC50 (Rluc-ADGRG2-ΔGPS-β V774A): 1080 nM
EC50 (Rluc-ADGRG2-ΔGPS-β F826A): 1170 nM
EC50 (Rluc-ADGRG2-ΔGPS-β M839A): 896 nM
EC50 (Rluc-ADGRG2-ΔGPS-β F829A): 323 nM
EC50 (Rluc-ADGRG2-ΔGPS-β V836A): 1230 nM
EC50 (Rluc-ADGRG2-ΔGPS-β F845A): 1360 nM
EC50 (Rluc-ADGRG2-ΔGPS-β I663A): 772 nM
EC50 (Rluc-ADGRG2-ΔGPS-β N667A): 913 nM
EC50 (Rluc-ADGRG2-ΔGPS-β Y666A): 838 nM
